Broadly, the Kd is the equilibrium constant for the complex coming apart. A word on the koff: it is the first-order rate constant of dissociation. Low values mean slow dissociation, high ones fast dissociation. By kon is commonly meant the rate constant with which the complex forms. A high value points to faster complex formation.

Square brackets hold non-standard residues; d marks the D form. Ends that are not written are not given here. * marks the point of attachment. Aib = CC(C)(N)C(=O)O; BrAc = O=C(CBr)*

Data on five molecules can be found in patent US20250163168A1 (Pfizer, published 2025).

In one test the target is human GLP1R (human, UniProt P43220 24-463). In words: cell-based or functional assay.
Test [1] addresses T1, human GIPR (hGIPR), full length (human, UniProt P48546 22-466).
T1 sequence: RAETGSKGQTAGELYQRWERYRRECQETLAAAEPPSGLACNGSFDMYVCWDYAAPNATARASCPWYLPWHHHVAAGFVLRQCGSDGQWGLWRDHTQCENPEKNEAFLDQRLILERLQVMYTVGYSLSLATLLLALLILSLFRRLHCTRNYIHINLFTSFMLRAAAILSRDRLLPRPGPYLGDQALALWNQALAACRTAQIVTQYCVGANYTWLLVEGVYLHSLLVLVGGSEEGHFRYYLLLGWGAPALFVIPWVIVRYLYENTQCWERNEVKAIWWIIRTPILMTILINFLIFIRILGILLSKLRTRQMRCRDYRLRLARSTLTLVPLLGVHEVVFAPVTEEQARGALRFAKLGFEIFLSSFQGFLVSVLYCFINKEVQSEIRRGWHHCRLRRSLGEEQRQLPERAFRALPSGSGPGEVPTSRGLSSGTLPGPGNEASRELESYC
In words: cell-based or functional assay.

Test [2] addresses T2, Human GIPR ECD (GIPR extra cellular domain) (human).
T2 construct: The published benchmark structures (6dkj, 4hj0) used their own ECD constructs
T2 chain: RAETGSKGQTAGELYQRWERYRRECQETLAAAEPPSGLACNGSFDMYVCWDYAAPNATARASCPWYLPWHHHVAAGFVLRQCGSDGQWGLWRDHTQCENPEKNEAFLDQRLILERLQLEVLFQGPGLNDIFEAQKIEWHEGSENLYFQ
In words: SPR (Biacore 8K, 37 C); antibody captured on anti-human IgG, human GIPR ECD as analyte; 1:1 model. For orientation: Surface plasmon resonance follows binding to a sensor surface in real time, without labels.

Chain of human GLP1R (P43220 24-463): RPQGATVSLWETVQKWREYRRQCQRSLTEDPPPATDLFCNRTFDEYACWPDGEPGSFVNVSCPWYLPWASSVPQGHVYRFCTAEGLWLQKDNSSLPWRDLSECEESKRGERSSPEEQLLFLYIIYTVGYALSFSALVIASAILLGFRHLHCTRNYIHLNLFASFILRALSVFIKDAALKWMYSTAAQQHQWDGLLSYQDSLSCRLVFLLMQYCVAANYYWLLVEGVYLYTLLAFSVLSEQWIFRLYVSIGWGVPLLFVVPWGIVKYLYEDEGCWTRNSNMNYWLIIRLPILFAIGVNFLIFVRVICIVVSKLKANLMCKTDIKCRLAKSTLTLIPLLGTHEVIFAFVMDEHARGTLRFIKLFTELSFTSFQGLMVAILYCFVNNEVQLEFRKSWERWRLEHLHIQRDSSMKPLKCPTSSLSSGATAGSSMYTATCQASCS

B1: SEQ ID NO 150: GLP1(7-37) [Aib8; Aib22] with GGGGS(x3)-K(BrAc) linker (peptide)
peptide: H-H[Aib]EGTFTSDVSSYLE[Aib]QAAKEFIAWLVKGRGGGGGSGGGGSGGGGSK(BrAc)
modifications: not fully specified (C-terminus)
Consider B1, for which the “cAMP assay, GLP1R agonist mode, Emax (%)” value with human GLP1R is 104%.

B2: SEQ ID NO 151: GLP1(7-37) [Aib8; Tyr16; Glu22] with GGGGS(x3)-K(BrAc) linker (peptide)
peptide: H[Aib]EGTFTSDYSSYLEEQAAKEFIAWLVKGRGGGGGSGGGGSGGGGSK(BrAc)
modifications: not fully specified (C-terminus)
With B2, in the test with human GLP1R, the “cAMP assay, GLP1R agonist mode, EC50 (pM)” value (“cAMP assay … (pM)” for short) came to 3.5 pM and the “cAMP assay, GLP1R agonist mode, Emax (%)” value amounted to 109%.

B3: SEQ ID NO 153 (Benchmark): GLP1(7-37) [Aib8; Glu22; Gly36] with GGGGS(x3)-K(BrAc) linker (peptide)
peptide: H-H[Aib]EGTFTSDVSSYLEEQAAKEFIAWLVKGGGGGGGSGGGGSGGGGSK(BrAc)
modifications: not fully specified (C-terminus)
On to B3, for which, in the test with human GLP1R, the “cAMP assay … (pM)” value is 15 pM and the “cAMP assay, GLP1R agonist mode, Emax (%)” value is 109%.

B4: anti-GIPR antibody GIPR-2767 (antibody, human IgG1, kappa)
heavy: EVQLVESGGGLVKPGGSLRLSCAASGFPFSSAWMSWVRQAPGKGLEWVGRIKSKADAGTTDYGAPVKGRFTISRDDSKNTLYLQMNSLKTEDTAVYYCTTEDIVGVPFKGYYQYMDAWGKGTTVTVSSASTKGPSVFPLAPSSKSTSGGTAALGCLVKDYFPEPVTVSWNSGALTSGVHTFPAVLQSSGLYSLSSVVTVPSSSLGTQTYICNVNHKPSNTKVDKKVEPKSCDKTHTCPPCPAPEAAGAPSVFLFPPKPKDTLMISRTPEVTCVVVDVSHEDPEVKFNWYVDGVEVHNAKTKPREEQYNSTYRVVSVLTVLHQDWLNGKEYKCKVSNKALPAPIEKTISKAKGQPREPQVYTLPPSREEMTKNQVSLTCLVKGFYPSDIAVEWESNGQPENNYKTTPPVLDSDGSFFLYSKLTVDKSRWQQGNVFSCSVMHEALHNHYTQKSLSLSPGK
light: not shown
notes: also called GIPR-27676; GIPR-2676
In the case of B4, the “Human GIPR-CHO cAMP Antagonist Activity IC50” value in test [1] is 28 nM. Also, in test [2], the affinity, expressed as Kd, was 1.91 nM; the koff is 0.0013 s⁻¹; the kon came out at 684000 M⁻¹ s⁻¹.

B5: SEQ ID NO 152: GLP1(7-37) [Aib8; Tyr16; Aib22] with GGGGS(x3)-K(BrAc) linker (peptide)
peptide: H-H[Aib]EGTFTSDYSSYLE[Aib]QAAKEFIAWLVKGRGGGGGSGGGGSGGGGSK(BrAc)
modifications: not fully specified (C-terminus)
For the molecule B5, in the test with human GLP1R, the “cAMP assay … (pM)” value turned out to be 2.1 pM and the “cAMP assay, GLP1R agonist mode, Emax (%)” value was determined as 107%.
